Assay results published in patent US6635429, “Heterodimeric nuclear receptors proteins, genes encoding same, and usage thereof” (Institut National de la Sante et de la Recherche Medicale).

B1: DR1 (dsDNA)
DNA 1: AGGTCAGAGGTCA
DNA 2: TGACCTCTGACCT
B2: DR2 (dsDNA)
DNA 1: AGGTCAGCAGGTCA
DNA 2: TGACCTGCTGACCT
B3: DR4 (dsDNA)
DNA 1: AGGTCAGCGAAGGTCA
DNA 2: TGACCTTCGCTGACCT
B4: IR0 (dsDNA)
DNA 1: AGGTCATGACCT
DNA 2: AGGTCATGACCT
B5: DR3 (dsDNA)
DNA 1: AGGTCAGCGAGGTCA
DNA 2: TGACCTCGCTGACCT
B6: DR5 (dsDNA)
DNA 1: AGGTCAGCGAGAGGTCA
DNA 2: TGACCTCTCGCTGACCT

What was measured:
Details in all cases: protein: extract; tags: yeast-expressed
RXRα (yeast) [1] = target: T1, RXRα (yeast) (Mus musculus, UniProt P28700 SEQ:1-467); test: cell_activity; yeast, 9-cis RA
T1 sequence: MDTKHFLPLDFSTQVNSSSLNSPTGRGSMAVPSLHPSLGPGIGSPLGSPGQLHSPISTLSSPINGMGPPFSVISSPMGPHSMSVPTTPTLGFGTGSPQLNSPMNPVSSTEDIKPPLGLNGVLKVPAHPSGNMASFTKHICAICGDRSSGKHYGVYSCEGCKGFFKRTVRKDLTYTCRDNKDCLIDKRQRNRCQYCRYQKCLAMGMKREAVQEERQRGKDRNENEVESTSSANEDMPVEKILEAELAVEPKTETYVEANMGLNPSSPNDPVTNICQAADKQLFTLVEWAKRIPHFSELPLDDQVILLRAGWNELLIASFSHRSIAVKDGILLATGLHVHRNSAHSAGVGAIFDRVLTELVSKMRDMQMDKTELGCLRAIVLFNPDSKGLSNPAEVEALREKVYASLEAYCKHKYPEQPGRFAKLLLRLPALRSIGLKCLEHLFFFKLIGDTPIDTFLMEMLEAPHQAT
Source text: (§1) FIG. 13A, Sequences of the response elements used in this study consisting of a direct repeat of a hexamer sequence spaced by one to five base pairs (DR1–DR5), or an inverted repeat of the same hexamer with no spacing (IR0). The hexamer repeats are indicated by arrows and the spacer sequences are presented in lower case. FIG. 13B, Transactivation of URA3 reporter genes containing the different elements by homodimers and heterodimers of RARα and RXRα. The sequences represented in FIG. 13A were cloned into the promoter of a URA3 reporter gene carried on a centromeric plasmid to generate the DRn-URA3 reporter series and IR0-URA3. The reporters were introduced into a yeast strain containing multicopy vectors expressing RARα, RXRα or no receptor. […] "Control" indicates the basal reporter activity in the absence of receptors (using "empty" expression vectors), and the experiments using only one receptor were performed in the presence of the corresponding "empty" vector. The white, hatched and black columns indicate the reporter activity in the presence of no ligand, all-trans RA and 9-cis RA, respectively. The reporter activities are given as units of OMPdecase activity per minute per mg protein, and the values represent the average of at least 2 experiments using at least 2 different clones per experiment. […] Similar amounts of each probe (50, 000 cpm) were used in the assays.

[2] = target: T2, RARα1/RXRα heterodimer (yeast) (Homo sapiens/Mus musculus, UniProt P10276;P28700 P10276:1-462,P28700:1-467); test: cell_activity; yeast URA3 reporter, 500 nM 9-cis RA
T2 sequence 1: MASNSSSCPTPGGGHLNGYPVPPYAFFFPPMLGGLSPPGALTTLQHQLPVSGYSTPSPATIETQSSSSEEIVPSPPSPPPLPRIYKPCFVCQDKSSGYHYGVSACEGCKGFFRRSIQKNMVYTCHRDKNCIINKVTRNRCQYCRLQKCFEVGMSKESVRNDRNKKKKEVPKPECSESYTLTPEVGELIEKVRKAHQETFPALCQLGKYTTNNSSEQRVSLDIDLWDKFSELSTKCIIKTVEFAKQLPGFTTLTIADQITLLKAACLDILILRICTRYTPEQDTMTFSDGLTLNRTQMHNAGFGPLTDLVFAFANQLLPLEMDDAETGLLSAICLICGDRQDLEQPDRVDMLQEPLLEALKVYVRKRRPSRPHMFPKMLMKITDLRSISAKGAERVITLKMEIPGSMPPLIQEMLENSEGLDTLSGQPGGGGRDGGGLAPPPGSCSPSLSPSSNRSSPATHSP
T2 sequence 2: T1 sequence
Source text: as §1

[3] = target: T2, RARα1/RXRα heterodimer (yeast); test: cell_activity; yeast, 500 nM 9-cis RA
Source text: as §1

RXRα (yeast) [4] = target: T1, RXRα (yeast); test: cell_activity; yeast, ligand dependent; low absolute activity
Source text: as §1

[5] = target: T2, RARα1/RXRα heterodimer (yeast); test: cell_activity; yeast, 500 nM 9-cis RA; low absolute activity
Source text: as §1

Row | Binder | activity [2] [fold over control] | activity [3] [fold over control] | further results
1 | B1 | 36 |  | activity (RXRα (yeast) [1]): ≥ 30 fold
2 | B2 |  | ~10 | 
3 | B3 |  | ~10 | 
4 | B4 |  |  | activity (RXRα (yeast) [4]): 20 fold over control; activity [5]: 40 fold over control
5 | B5 |  | ~10 | 
6 | B6 | 60 |  | 
